Source: the DeepSol protein solubility set

Assay: soluble on expression in E. coli; label from the status in PepcDB or PDB records
In the case of “MSSSRHFSIPYDEDVVHSVILENTPSPPPKPPRGILRKEAPMKPQRSALKIEPARDDDKENNSQPQARSQFKAKDTMEQMQSYFKRSISVLRKSEEHFTGAEAADILTAYIETHRNEFPRDNIGRSNAVKLLEIWLESNTIQSVESHQKKFVDSERTFYRLGGDSESLYIVNTPIASRNHDDSASVSRSESSRRSNSIKRLFSPFVRRNRSNSRGRDKDKDNLKDGSSTNLKSTWSLFSSSSEKNEKKLKKAEQQLIKEEEAEVYELSLFHLLSLIDVEFLEDVALPVQDSKNNASFLSSILGKVGLGASEERLDPHQEDHMDLLIETHPLIRDASQWFQMARCCAPLLYFEAKPVASNHKTSHNEQLYLWCRAALDAVKNRLEKMTQNGSSPLFPSEFAPLLTKIAQQLINDMDSGEKLSTAVMYIFLMVPHPIRKTIDQLVQWLQLTMRTDAVEDLRSPYYLGKKDPRRYKENVNVIIGELSSFIFPRGCMTNVQQDIFIETLVELRQKGKLGQRPAQLESSLRAKSVNGQIKWQRKERKHNSLEGDLTPVRYTVRRESIRSKTSKSKDGLNETDSALVTMINSVIDNKELSLTEKKKQLMNFKKFYPKLYNDFFPGMI”, the “soluble on expression in E. coli” value is reported as “not soluble”.
With “MSSSSSSEDELEKKVTKEQKKKETKSKKRQSEAVEEEKQEVKKAKNEEEVSGRLKDSDGNEMFEIGNLRYATVSKFKGKEYVNIREYYIDRDSQKMMPSRKGISLSKAQWANLKDLIPEIDKKF” the “soluble on expression in E. coli” value was “soluble”.
With “MSSTIKAIAVLKGDSPVQGVITFTQESSGGPVTVSGEIKNMDANAQRGFHVHQFGDNSNGCTSAGPHFNPTGTNHGDRTAEVRHVGDLGNVKTDASGVAKVQISDSQLSLVGPHSIIGRTIVIHAGEDDLGKTDHPESLKTGNAGARSACGVIGIAAAAALEHHHHHH” the “soluble on expression in E. coli” value was “soluble”.
With “MSSTLAKIAEIEAEMARTQKNKATAHHLGLLKARLAKLRRELITPKGGGGGGPGEGFDVAKTGDARIGFVGFPSVGKSTLLSNLAGVYSEVAAYEFTTLTTVPGVIRYKGAKIQLLDLPGIIEGAKDGKGRGRQVIAVARTCNLILIVLDVLKPLGHKKIIENELEGFGIRLNSKPPNIGFKKKDKGGINLTATCPQSELDAETVKSILAEYKIHNADVTLRSDATADDLIDVVEGNRVYIPCIYVLNKIDQISIEELDIIYKVPHCVPISAHHRWNFDDLLEKIWDYLKLVRIYTKPKGQLPDYTSPVVLPYSRTTVEDFCMKIHKNLIKEFKYALVWGLSVKHNPQKVGKDHTLEDEDVIQIVKK” the “soluble on expression in E. coli” value was “soluble”.
In the case of “MSTASGITMASMSTYAILGCGSVGHAVAEELVEEGKDVLILDADEGRVEALRDQDLNAQQADICETDVAQTVADRDVVLIMSPDVNANAEAVRNIRESGGEQFIVARADDPVSADDLTELGADVVINPSAVIADSALRALETGELEYKASQLGDVIDGTEERMAILIHRSPDPDSIASAAALRAIAASRDVDADIIYEGEIGHQENRAFVNLLGIELTSNEDVNLDEYDTFALVDVAKGGEPAVESVDIVIDHYEHEHELEHDAAFSDIRPNISATSTILTKYIQELDLNLDQSVATALLYGIRAETLDFKRDTTPADLTAAAYLYPFADHDTLEQVESPSMSPETLDVLAEAIRNREVQGSHLVSNAGFIRDRDALAQAAQHLLNLEGITTTAVFAIADDTIYLAARSKDIRMNIGKVLSDAFGGMGETAGHSTDASVEIPLGIFTGLDTSDDNRDTLLELTEEAVKRKLFEAMGVDSSSSESSNGN”, the “soluble on expression in E. coli” value is reported as “not soluble”.
For “MSTATRPSSSATTSVILENPVSQSQPTERLVLRLNRKKKKVSWKDGTVDNEFMQKKSSKKCCIFHKQKPFDEDDSEEEDDNNHHCDHNHEHSESGEASSSNDSKAVDMGHHHHHHSH”, the “soluble on expression in E. coli” value was “soluble”.
With “MSTEQPERADRLLAAAQRRGHERVEARDFGEAILAEVHCPRYLDFLKNGYAQWRALPGASQEITPHVHPPREESGYPVSIIGRAGFHIADTSSPMGPHTWEAALAASHSACTAAQLVIEGAPAAYSLSRPPGHHATRDRAGGFCFLNHTAVAAQWLRHHVARVAILDVDVHHGNGTQDIFYERDDVLHVSLHADPAYFYPFFTGYAQETGRGIGAGCNLNLPLPIGTDDEAFLAALRIACRRVLDFKPDVVVVALGLDTYEGDPLNAFRITTPGFARIGQAIAGLALPTVLVQEGGYLSDELGENLATFLDGFCQHLEHHHHHH” the “soluble on expression in E. coli” value was “not soluble”.
With “MSTFKITIIGGGSSYTPELVDGLIQRIEQLPVTELALVDVEQGRQKVEIIAALTQRMLARHGLEQVKVSVHYSLDEAIRGARFVLTQFRVGQLPARAADERLGLKYNLLGQETTGIGGFAKALRTIPVMLDIAANVERLAPDAWIINFTNPAGIVTEAVSRYTKAKIIGLCNVPISMHHMIAKLLQAPYEDLQLRFAGLNHMVWVHEVLQRGKYVTADVLKMLCDGASLSMNNIKEAPWPPEFLQAMGAIPCPYHRYFYQTQDMLAEEMAAAAERGTRAEQVMQVEKELFALYADPHLDTKPEQLSFRGGSFYSEVALELIRAIHNNLGTQLVVNTTNRGAIRGLSDDSVVETNCIIDAKGAHPLTFGPLPVSMHGLTQQVKAYERLTIDAAVHGDRRSALLALVTNPLIANASIAQPLLEEVLQVNKPYLPQFSGL” the “soluble on expression in E. coli” value was “not soluble”.
For “MSTFKPLKILASRRQVLKAGLAAMTLSGVASQVSAKEQPLKTSNGHSKPAAKKAGGRRIVMLDPGHGGIDTGAIGHNGSKEKHVVLAIAKNVRSILRSNGIDARLTRTGDTFIPLYDRVEIAHQHGADLFMSIHADGFTNPSAAGASVFALSNRGASSAMAKYLSDRENRADEVAGKKATDKDHLLQQVLFDLVQTDTIKNSLTLGSHILKKIKPVHKLHSRNTEQAAFVVLKSPSIPSVLVETSFITNPNEEKLLGTTAFRQKIATAIANGIISYFHWFDNQKAHSKRR”, the “soluble on expression in E. coli” value was “not soluble”.
With “MSTFKPLKTLTSRRQVLKAGLAALTLSGMSQAIAKDELLKTSNGHSKPKAKKSGGKRVVVLDPGHGGIDTGAIGRNGSKEKHVVLAIAKNVRSILRNHGIDARLTRSGDTFIPLYDRVEIAHKHGADLFMSIHADGFTNPKAAGASVFALSNRGASSAMAKYLSERENRADEVAGKKATDKDHLLQQVLFDLVQTDTIKNSLTLGSHILKKIKPVHKLHSRNTEQAAFVVLKSPSVPSVLVETSFITNPEEERLLGTAAFRQKIATAIAEGVISYFHWFDNQKAHSKKR” the “soluble on expression in E. coli” value was “soluble”.
For “MSTHEATLQQPLLRAIDLKKHYPVKKGIFSPERLVKALDGVSFNLERGKTLAVVGESGCGKSTLGRLLTMIETPTGGELYYQGQDLLKHDPHAQKLRRQKIQIVFQNPYGSLNPRKKVGQILEEPLLINTSLSKAQRREKALAMMAKVGLKTEHYDRYPHMFSGGQRQRIAIARGLMLDPDVVIADEPVSALDVSVRAQVLNLMMDLQQDMGLSYVFISHDLSVVEHIADEVMVMYLGRCVEKGTKEQIFNNPRHPYTQALLSATPRLNPDDRRERIKLTGELPSPLNPPPGCAFNARCSRRFGPCTQLQPQLKEYDGQLVACFAVDQDENPQKPLS”, the “soluble on expression in E. coli” value was “not soluble”.
In the case of “MSTHLLHALWLKNSGLHLWIEQVEGHKIVLSDAVPDNTFPDSVATLIRGKRFTHQVKTKLLTPKGREVTLQLPTIAFTPEQAVRVLSQIAAITPMMASSAQRATLAPDLMWMVRLYQGLEQFVRAGRLTIKLGYADHQWWPTWQLSSGLQERGWIAQMTAAAPGVLIANAGSSVAEDIADELPHWIANFLLQDLLDTPRSSEWHSFPEALMRSTPLRRGTAQLVSALNEWRDSMTSVSVQLVFIVEEPSKDREDRIDPADMLWPIRVRVRSGVDSPQPIMLSHYDSATKERLNALRREAILVAPILEKQGTDSNVTPTQLFELQREEGAGDWDCYVTTDQLVEFIGDAAARLKSRGFNVLLPRSWDQQETKAHLRLSDPAEASTQATIGLDKIVDYDWHMSVGDIELTEAEMVELVRSKSGLIHLRGEWVMADTAAIRRIGDYMKDVAAQSRKRKKQALDTAVMEAELAKANDDPRWPMLEARAEKLAEEFNNEFAEFGQVTLAELRELALKAQENEPIAYTGSPWHASLAGGSMGKDSPAPQRVSI”, the “soluble on expression in E. coli” value is reported as “not soluble”.
For “MSTITKEWLLKTIAELEEERDATPGAVNEDAAMALAAMKLALASLEAEPVAWLLSGGGAKNNVSFDSGNAYAAQLREVTPLYTAPPAPVSVPAAMEIDDDFDSAFEHGKAVGWNAYRAAMLQAEPVSNSDELPLDYLQGHKDGLEWAAQLAEANHPQTGDWLYDDQIELARAIRKGPDMPTVQGGNSPVIPDGWVMVPVELTPDMRAAWDSAPYTDDDDNDMQAAYRAMIAVAPQWKVK”, the “soluble on expression in E. coli” value was “not soluble”.
In the case of “MSTLLDRVPCTIVTGFLGAGKTTLLRGLLEKLDGKRLAIIVNEFGDIGIDGEILKGCGIESCPEENIVELANGCICCTVADDFQPAIEQILSRQPKVEHILIETSGLALPKPLVQAFQWPAIKSRVTVDAVVAVVDGAALAEGQVAHDMEALAAQRANDEALDHDDPVEEVFEDQVACADLIVLTKADLLDDAGLEKAKAHILEHLPKAAKIVVASNGAIDPTVLIGLGLAVEEDIENRRTHHDGELDHEHDDFDSFVIDLPAVTDPEALAARIAQTAAAENVLRIKGFIEVATKPMRLQVQAVGSRVNHYYDRPWAAGEERRSRLVVIGEKGINREKIEQMLAA”, the “soluble on expression in E. coli” value is reported as “not soluble”.
In the case of “MSTPFGLDLGNNNSVLAVARNRGIDIVVNEVSNRSTPSVVGFGPKNRYLGETGKNKQTSNIKNTVANLKRIIGLDYHHPDFEQESKHFTSKLVELDDKKTGAEVRFAGEKHVFSATQLAAMFIDKVKDTVKQDTKANITDVCIAVPPWYTEEQRYNIADAARIAGLNPVRIVNDVTAAGVSYGIFKTDLPEGEEKPRIVAFVDIGHSSYTCSIMAFKKGQLKVLGTACDKHFGGRDFDLAITEHFADEFKTKYKIDIRENPKAYNRILTAAEKLKKVLSANTNAPFSVESVMNDVDVSSQLSREELEELVKPLLERVTEPVTKALAQAKLSAEEVDFVEIIGGTTRIPTLKQSISEAFGKPLSTTLNQDEAIAKGAAFICAIHS”, the “soluble on expression in E. coli” value is reported as “not soluble”.
In the case of “MSTQLATSMEIIRKSLRKAAEDVLHINSKNAISNEVDSEEFKETLMKDAMKLMELETEGAQMQHIFEALHNDLKDGSDEVPNEKALEELYEKAKKTHKNVKGERQYFKDIIKSIRDESKNDENEMEVMQVQHSRKDPISKKDIVNPVISKNCGHVYDRDSIHEFAGKKRVIKCAMQGCSETINIGQLADYPDYWTNIKQQQ”, the “soluble on expression in E. coli” value is reported as “not soluble”.
In the case of “MSTQPSHPSSSNDLDSSIGTARIEVVSVPVKPRNKFSTTPVKRVEMKKSKESDSVDKALKVKSSLDCMKLEKPAPTTCEMKAA”, the “soluble on expression in E. coli” value is reported as “soluble”.
For “MSTSVAENKALSASGDVNASDASVPPELLTRHPLQNRWALWYLKADRNKEWEDCLKMVSLFDTVEDFWSLYNHIQSAGGLNWGSDYYLFKEGIKPMWEDVNNVQGGRWLVVVDKQRRTQLLDHYWLELLMAIVGEQFDEYGDYICGAVVNVRQKGDKVSLWTRDATRDDVNLRIGQVLKQKLSIPDTEILRYEVHKDSSARTSSTVKPRICLPAKDPAPVKEKGPAATTSPSNPGTEATGTSPATPTP”, the “soluble on expression in E. coli” value was “not soluble”.
In the case of “MSTTAYQPIAECGATTQSEAAAYQKRWLVANDAGQWLNRDLCPRLAEVSVELRMGYLVLKAPGMLRLDIPLDVIEDDDSVRYQMLVGEQTVDVVDEGELAAAWISNHAGVPCRILKVHPDMAEVRWPSLEHHHHHH”, the “soluble on expression in E. coli” value is reported as “soluble”.
For “MSTTHNVPQGDLVLRTLAMPADTNANGDIFGGWLMSQMDIGGAILAKEIAHGRVVTVRVEGMTFLRPVAVGDVVCCYARCVQKGTTSVSINIEVWVKKVASEPIGQRYKATEALFKYVAVDPEGKPRALPVE”, the “soluble on expression in E. coli” value was “soluble”.
